Target: T1, mouse HMGB1 (produced in E. coli (Sigma)) (mouse, UniProt P63158 1-215, limits assumed)
T1 construct: Bought reagent; also called late cytokine (HMGB1); recombinant HMGB1
T1 sequence (looked up): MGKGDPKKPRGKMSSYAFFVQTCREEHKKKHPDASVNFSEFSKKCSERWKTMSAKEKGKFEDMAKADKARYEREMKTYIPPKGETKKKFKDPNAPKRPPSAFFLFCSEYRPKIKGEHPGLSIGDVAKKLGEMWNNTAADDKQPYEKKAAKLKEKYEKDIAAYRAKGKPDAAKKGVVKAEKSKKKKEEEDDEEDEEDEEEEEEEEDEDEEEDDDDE
Experiment: agglutination of Ter119-TM loaded mouse RBCs after HMGB1 and anti-HMGB1 antibody
Method: Mouse and human RBCs were washed in PBS/3% BSA buffer, resuspended in the same buffer to 10% hematocrit and incubated with Ter119-TM (final concentration […]) for 1 h. […] Then cells were washed 3 times with PBS/BSA buffer and equimolar amount of mouse HMGB1 (produced in E. coli (Sigma)) was added to the assay for 30 min at room temperature. Then RBC were washed with PBS/BSA and brought to the final hematocrit of 1% and the monoclonal Ab to mouse HMGB1 (Sigma, dilution as per manufacturer) was added to the assay placed into a V-shaped plate (total volume-100 μl).

binding result: binds
B1: Ter119scFv-TM (thrombomodulin) fusion protein (other)
chain: RSPWPGVPTSQVKLQESGGGLVQPGGSLKLSCVASGFTFRDHWMNWVRQAPGKTMEWIGDIRPDGSDTNYAPSVRNRFTISRDNARSILYLQMSNMRSDYTATYYCVRDSPTRAGLMDAWGQGASVTVLTGGGGSGGGGSGGGGSDIQMIQSPSVLSASVGDRVTLNCKASQNINKYLNWYQQKLGEAPKVLIYNTNNLQTGIPSRFSGSGSGTDFTLTISSLQPEDFATYFCFQHYTWPTFGGGTKLELKRASSSSGSSSSGAAALSALAKLQPTGSQCVEHECFALFQGPATFLDASQACQRLQGHLMTVRSSVAADVISLLLSQSSMDLGPWIGLQLPQGCDDPVHLGPLRGFQWVTGDNHTSYSRWARPNDQTAPLCGPLCVTVSTATEAAPGEPAWEEKPCETETQGFLCEFYFTASCRPLTVNTRDPEAAHISSTYNTPFGVSGADFQTLPVGSSAAVEPLGLELVCRAPPGTSEGHWAWEATGAWNCSVENGGCEYLCNRSTNEPRCLCPRDMDLQADGRSCARPVVQSCNELCEHFCVSNAEVPGSYSCMCETGYQLAADGHRCEDVDDCKQGPNPCPQLCVNTKGGFECFCYDGYELVDGECVELLDPCFGSNCEFQCQPVSPTDYRCICAPGFAPKPDEPHKCEMFCNETSCPADCDPNSPTVCECPEGFILDEGSVCTDIDECSQGECFTSECRNFPGSYECICGPDTALAGQISKDCDPIPVREDTKEEEGSGEPPVSPTPGSPTGPPSARPVHSDYKDHDGDYKDHDIDYKDDDDK
notes: Expressed in Drosophila S2 cells from a pMT/BiP/V5-HisA plasmid; Some assays used it directly from S2 cell medium; also called Ter119-TM
